Measured values taken from US20160046944, “APTAMER TO IL-17 AND USE THEREOF” (THE UNIVERSITY OF TOKYO, published 2016).
Substitutions are numbered along the chain they refer to.

B1: aptamer No. 81 (mixed)
mixed: GGGUAGCCGGAGGAGTCAGTAAUCGGUACCC
modifications: 2'-OMe (M), 2'-F (F), PS (S) as marked; uppercase DNA [2'-OMe: 1-5,7,8,10,11,13,14,17,21-31; 2'-F: 18; PS: 6,15,19; DNA: 9,16,20]
B2: aptamer No. 93 (mixed)
RNA: B1 mixed with T16U, T20U
modifications: 2'-OMe (M), 2'-F (F), PS (S) as marked; uppercase DNA [2'-OMe: 1-5,7,8,10,11,13,14,21,23-26,28-31; 2'-F: 16-18,20,27; PS: 6,15,19; DNA: 9]
B3: aptamer No. 53 (mixed)
mixed: B1 mixed
modifications: 2'-OMe (M), 2'-F (F), PS (S) as marked; uppercase DNA [2'-OMe: 1,2,3,4,7,8,10,13,14,21,22,23,24,25,26,28; 2'-F: 11,17,18,27; PS: 6,19]
B4: aptamer No. 94 (mixed)
RNA: B1 mixed with T16U, T20U
modifications: 2'-OMe (M), 2'-F (F), PS (S) as marked; uppercase DNA [2'-OMe: 1-5,7,8,10,11,13,14,23-26,28-31; 2'-F: 16-18,20,27; PS: 6,15,19; DNA: 9]
B5: aptamer No. 58 (mixed)
mixed: B1 mixed
modifications: 2'-OMe (M), 2'-F (F), PS (S) as marked; uppercase DNA [2'-OMe: 1,2,3,4,7,8,10,13,14,19,21,22,23,24,25,26,28; 2'-F: 11,17,18,27; PS: 6,12,15]
B6: aptamer No. 33 (mixed)
mixed: B1 mixed with U27T
modifications: 2'-OMe (M), 2'-F (F) as marked; uppercase DNA [2'-OMe: 1,2,3,4,7,8,10,13,14,21,23,24,25,26; 2'-F: 17]
B7: aptamer No. 68 (mixed)
RNA: B1 mixed with T16U, T20U
modifications: 2'-OMe (M), 2'-F (F), PS (S) as marked; uppercase DNA [2'-OMe: 1-5,7,8,10,13,14,21-26,29-31; 2'-F: 11,16,17,18,20,27; PS: 6,15,19]
B8: aptamer No. 77 (mixed)
RNA: B1 mixed with T16U, T20U
modifications: 2'-OMe (M), 2'-F (F) as marked; uppercase DNA [2'-OMe: 1-5,7,8,10,13,14,21-26,29-31; 2'-F: 11,16,17,18,20,27; DNA: 28]
B9: aptamer No. 52 (mixed)
mixed: B1 mixed
modifications: 2'-OMe (M), 2'-F (F), PS (S) as marked; uppercase DNA [2'-OMe: 1-4,7,8,10,13,14,21-26,28; 2'-F: 11,17,18,27; PS: 6,15]
B10: aptamer No. 79 (ssRNA)
RNA: B1 mixed with T16U, T20U
modifications: 2'-OMe (M), 2'-F (F) as marked [2'-OMe: 1-5,7,8,10,13,14,21-31; 2'-F: 11,16,17,18,20]
B11: aptamer No. 48 (mixed)
mixed: B1 mixed
modifications: 2'-OMe (M), 2'-F (F) as marked; uppercase DNA [2'-OMe: 1-4,7,8,10,13,14,23-26,28; 2'-F: 17,27]
B12: aptamer No. 90 (mixed)
mixed: B1 mixed
modifications: 2'-OMe (M), 2'-F (F), PS (S) as marked; uppercase DNA [2'-OMe: 1-5,7,8,10,11,13,14,17,21,23-31; 2'-F: 18; PS: 6,15,19; DNA: 9,16,20]
B13: aptamer No. 83 (mixed)
RNA: B1 mixed with T16U, T20U
modifications: 2'-OMe (M), 2'-F (F), PS (S) as marked; uppercase DNA [2'-OMe: 1-5,7,8,10,11,13,14,17,21-26,28-31; 2'-F: 16,18,20,27; PS: 6,15,19; DNA: 9]
B14: aptamer No. 80 (mixed)
RNA: B1 mixed with T16U, T20U
modifications: 2'-OMe (M), 2'-F (F), PS (S) as marked; uppercase DNA [2'-OMe: 1-5,7,8,10,13,14,21-26,29-31; 2'-F: 11,16,17,18,20,27; PS: 6; DNA: 9,28]
B15: aptamer No. 47 (mixed)
mixed: B1 mixed
modifications: 2'-OMe (M), 2'-F (F) as marked; uppercase DNA [2'-OMe: 1-4,7,8,10,13,14,23-26,28; 2'-F: 11,17,18,27]
B16: aptamer No. 78 (mixed)
mixed: B1 mixed
modifications: 2'-OMe (M), 2'-F (F) as marked; uppercase DNA [2'-OMe: 1-5,7,8,10,13,14,21-31; 2'-F: 11,17,18; DNA: 9,16,20]
B17: aptamer No. 60 (mixed)
mixed: B1 mixed
modifications: 2'-OMe (M), 2'-F (F), PS (S) as marked; uppercase DNA [2'-OMe: 1,2,3,4,5,7,8,10,13,14,19,21,22,23,24,25,26,28,29,30,31; 2'-F: 11,17,18,27; PS: 6,15]
B18: aptamer No. 92 (mixed)
RNA: B1 mixed with T16U, T20U
modifications: 2'-OMe (M), 2'-F (F), PS (S) as marked; uppercase DNA [2'-OMe: 1-5,7,8,10,11,13,14,22-26,28-31; 2'-F: 16-18,20,27; PS: 6,15,19; DNA: 9]
B19: aptamer No. 56 (mixed)
mixed: B1 mixed
modifications: 2'-OMe (M), 2'-F (F), PS (S) as marked; uppercase DNA [2'-OMe: 1,2,3,4,7,8,10,13,14,21,22,23,24,25,26,28; 2'-F: 11,17,18,27; PS: 6,15,19]
B20: aptamer No. 87 (mixed)
mixed: B1 mixed with A21G
modifications: 2'-OMe (M), 2'-F (F), PS (S) as marked; uppercase DNA [2'-OMe: 1-5,7,8,10,11,13,14,17,22-31; 2'-F: 18; PS: 6,15,19; DNA: 9,16,20]
B21: aptamer No. 70 (mixed)
RNA: B1 mixed with T16U, T20U
modifications: 2'-OMe (M), 2'-F (F), PS (S) as marked; uppercase DNA [2'-OMe: 1-5,7,8,10,13,14,21-26,28-31; 2'-F: 11,16,17,18,20,27; PS: 6,15,19]
B22: aptamer No. 37 (mixed)
mixed: B1 mixed with U27T
modifications: 2'-OMe (M), 2'-F (F) as marked; uppercase DNA; (NI) printed, likely (M) [2'-OMe: 1,2,3,4,7,10,13,14,23,24,25,26,28,29,30,31; 2'-F: 17; 8 printed (NI), likely 2'-OMe]
B23: aptamer No. 59 (mixed)
mixed: B1 mixed
modifications: 2'-OMe (M), 2'-F (F), PS (S) as marked; uppercase DNA [2'-OMe: 1,2,3,4,7,8,10,13,14,19,21,22,23,24,25,26,28,29,30,31; 2'-F: 11,17,18,27; PS: 6,15]
B24: aptamer No. 62 (mixed)
mixed: B1 mixed
modifications: 2'-OMe (M), 2'-F (F), PS (S) as marked; uppercase DNA [2'-OMe: 1,2,3,4,5,7,8,10,13,14,21,22,23,24,25,26,28,29,30,31; 2'-F: 11,17,18,27; PS: 6]

Tests used:
IL-17 [1] = target: T1, IL-17 (Homo sapiens, UniProt Q16552 Q16552:24-155); assay: SPR; IL-17 150 nM, aptamer 12.5 or 50 nM; conditions: chain copies: 2
T1 sequence: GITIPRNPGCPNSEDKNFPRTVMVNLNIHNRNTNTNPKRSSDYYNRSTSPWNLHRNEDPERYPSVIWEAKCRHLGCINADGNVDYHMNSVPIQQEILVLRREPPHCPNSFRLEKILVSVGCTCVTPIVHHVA
Method: Whether the synthesized aptamers inhibit the binding of IL-17 and IL-17 receptor was evaluated by the surface plasmon resonance method.
For the measurement, BIAcore T100 manufactured by GE Healthcare Bio Sciences was used. […] As an analyte, IL-17 (150 nM) and each aptamer (12.5 or 50 nM) shown by Table 3 were mixed, maintained for 15 min and after that the mixture was flown.

IL-17 [2] = target: T1, IL-17; assay: SPR; IL-17R-Fc on chip; conditions: chain copies: 2
Method: Whether aptamers shown by aptamer Nos. 1-49 inhibit the binding of IL-17 and IL-17 receptor was evaluated by the surface plasmon resonance method.
For the measurement, BIAcore2000 manufactured by BIAcore was used. […] As an analyte, IL-17 (100 or 150 nM) and an aptamer (50 or 100 nM) shown by aptamer No. 1-49 were mixed, maintained for 15 min and after that the mixture was flown.

Binder | binding signal (IL-17 [1]) | binding signal (IL-17 [2])
B1 | 34.3 % IL-17/IL-17R binding remaining | 
B2 | 30.6 % IL-17/IL-17R binding remaining | 
B3 | 22.6 % IL-17/IL-17R binding remaining | 
B4 | 29.3 % IL-17/IL-17R binding remaining | 
B5 | 33.7 % IL-17/IL-17R binding remaining | 
B6 |  | 15.9 % IL-17/IL-17R binding remaining
B7 | 37 % IL-17/IL-17R binding remaining | 
B8 | 23.9 % IL-17/IL-17R binding remaining | 
B9 | 27.6 % IL-17/IL-17R binding remaining | 
B10 | 28.2 % IL-17/IL-17R binding remaining | 
B11 |  | 19.2 % IL-17/IL-17R binding remaining
B12 | 41.2 % IL-17/IL-17R binding remaining | 
B13 | 33.5 % IL-17/IL-17R binding remaining | 
B14 | 25.3 % IL-17/IL-17R binding remaining | 
B15 |  | 17.6 % IL-17/IL-17R binding remaining
B16 | 23.3 % IL-17/IL-17R binding remaining | 
B17 | 31.9 % IL-17/IL-17R binding remaining | 
B18 | 31.6 % IL-17/IL-17R binding remaining | 
B19 | 27 % IL-17/IL-17R binding remaining | 
B20 | 32.4 % IL-17/IL-17R binding remaining | 
B21 | 35 % IL-17/IL-17R binding remaining | 
B22 |  | 15.5 % IL-17/IL-17R binding remaining
B23 | 36.5 % IL-17/IL-17R binding remaining | 
B24 | 25.9 % IL-17/IL-17R binding remaining | 
